Data published in patent US9212226B2, “Amino acid sequences directed against CXCR4 and other GPCRs and compounds comprising the same” (Ablynx N.V., priority 2008, dated 2015).

Assays:
CXCR4 [1] = molecular target: T1, CXCR4 (Homo sapiens, UniProt P61073); assay: [125I]-238D4 competition binding on membranes from HEK293T cells transiently expressing CXCR4; conditions: membranes from HEK293T cells transiently expressing CXCR4; mean ± S.E.M.
Experimental: HEK293T cells were maintained at 37° C. in a humidified 5% CO2, 95% air atmosphere in Dulbecco's modified Eagle's medium (DMEM) containing 2 mM L-glutamine, 50 IU/ml penicillin, 50 μg/ml streptomycin, and 10% (v/v) fetal calf serum. Jurkat cells were cultured in a humidified 5% CO2, 95% air atmosphere in a 1:1 mixture of Dulbecco's modified Eagle's medium (DMEM) and Ham's F12 medium containing 2 mM L-glutamine, 50 IU/ml penicillin, 50 μg/ml streptomycin, and 10% (v/v) fetal calf serum. […] [^125 I]-Labelling— Radiolabeling of Nanobodies with ^125I was performed using the Iodo-gen method (Pierce, Rockford, Ill.) according to the manufacturer's protocol. ^125I-labeled Nanobodies was separated from free iodine (>99%) using a Sephadex G-25 gel filtration column (Amersham Biosciences, Piscataway, N.J.). […] Competition Binding Assays— Membranes from HEK293T cells transiently expressing CXCR3 or CXCR4 were prepared 48 h after transfection as follows. Cells were washed and scraped from the cell culture dishes with ice-cold PBS containing 1 mm EDTA. The scraped cells were pelleted at 1500×g for 10 min at 4° C. The pellet was washed and then resuspended in ice-cold membrane buffer (15 mM Tris, pH 7.5, 1 mM EGTA, 0.3 mM EDTA, and 2 mM MgCl2). The cell suspension was homogenized by 10 strokes at 1200 rpm using a Teflon-glass homogenizer and rotor and further subjected to three freeze-thaw cycles using liquid nitrogen. Membranes were separated by centrifugation at 40,000 g for 25 min at 4° C. The membrane pellet was washed and resuspended in ice-cold Tris-sucrose buffer (20 mM Tris, pH 7.4, and 250 mM sucrose) and frozen in liquid nitrogen. The total protein was determined using a Bradford assay (Bio-Rad). […] Membranes were then harvested over polyethylenimine (0.5%)-treated Whatman GF/C filter plates and washed three times with ice cold binding buffer containing 500 mM NaCl. Plates were counted by liquid scintillation. Inositol Phosphate Accumulation Assay— 24 hours post transfection with pcDNA3.1-CXCR4 and pcDNA1-HA-mG {alpha} qi5 (see Verzijl et al, 2008 supra), 250.000 cells were seeded into 24-wells plates and labelled overnight using inositol-free minimal essential medium supplemented with 1 μCi myo-[2-^3H]-inositol. The next day, the cells were washed once to remove not incorporated myo-[2-^3H]-inositol. […] In agonist experiments, the cells were directly stimulated with test compounds and LiCl (10 mM) in assay buffer for 2 h at 37° C. The stimulation was stopped by aspirating the stimulation medium and adding ice-cold 10 mM formic acid. The accumulated inositol phosphates were isolated by anion exchange chromatography and counted by liquid scintillation. CRE Reporter Gene Assay— HEK239T cells were transfected with pCRE/β-galactosidase (Chen W, Shields T S, Stork P J S, Cone R D (1995) Anal Biochem 226:349-354) and plasmids (pcDEF3 or pcDNA3.1) encoding the indicated receptors. 40,000 transfected cells per well were seeded into 96 well plates and grown in DMEM supplemented with 10% fetal calf serum. The medium was replaced 32 h after transfection by serum-free DMEM supplemented with 0.5% bovine serum albumin and ligands as indicated. […] The β-galactosidase activity was determined by the measurement of absorption at 420 nm with a PowerwaveX340 plate reader (Bio-Tek Instruments Inc., Winooski, Vt.) after incubation with the assay buffer when the OD420 value for forskolin (3 μM) controls reached 0.4-0.6. Chemotaxis Assay— The chemotactic responsiveness of Jurkat 3D cells was assessed using ChemoTx™ plates (Receptor Technologies Ltd., Oxon, UK) in which a upper cell-containing compartment is separated from a lower chemoattractant-containing compartment by a polyvinylpyrollidone-free polycarbonate filter with 5-μm pores. Cells were harvested, washed and resuspended in RPMI containing 0.5% bovine serum albumin and then loaded to 150,000 cells per well in a volume of 25 μl into the upper compartment of the chemotaxis chamber.
Target sequence in this assay (P61073 whole entry): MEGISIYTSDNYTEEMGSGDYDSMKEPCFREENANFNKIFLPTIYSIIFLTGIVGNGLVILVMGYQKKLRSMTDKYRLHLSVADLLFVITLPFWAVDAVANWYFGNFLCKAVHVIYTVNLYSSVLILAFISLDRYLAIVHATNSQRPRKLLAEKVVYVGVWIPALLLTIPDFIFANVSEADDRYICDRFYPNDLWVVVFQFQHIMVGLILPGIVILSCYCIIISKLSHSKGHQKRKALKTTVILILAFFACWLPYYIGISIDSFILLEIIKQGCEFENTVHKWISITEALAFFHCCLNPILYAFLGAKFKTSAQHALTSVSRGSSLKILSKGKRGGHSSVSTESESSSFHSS

CXCR4 [2] = molecular target: T1, CXCR4; assay: Phage ELISA binding assay on CHO-CXCR4 versus CHO membranes; parameters: expressed in transfected cells; host or cells: CHO cells (membrane preparation); conditions: monoclonal phages, CHO-CXCR4 vs CHO membranes
Experimental: FIG. 2. Results from Phage ELISA (as described in example 1.5).
In order to determine binding specificity of the Nanobodies, 15 ul of the produced phage were tested in an Phage ELISA binding assay.
In short, 2 ug in 100 ul PBS of membrane expressing either CXCR4 (CHO-CXCR4) or a non relevant GPCR(CHO) were coated directly on Maxisorp microtiter plates (Nunc) overnight at 4 C. Free binding sites were blocked using 4% Marvel in PBS for 1 h. Next, 15 ul of monoclonal phages was added in 100 ul 1% Marvel PBS for 2 hours. […] Binding specificity (binding to CHO-CXCR4) was determined based on OD values compared to controls (binding to CHO).
Target sequence in this assay (P61073 with tags, fused parts or gaps isoform P61073-2 limits assumed): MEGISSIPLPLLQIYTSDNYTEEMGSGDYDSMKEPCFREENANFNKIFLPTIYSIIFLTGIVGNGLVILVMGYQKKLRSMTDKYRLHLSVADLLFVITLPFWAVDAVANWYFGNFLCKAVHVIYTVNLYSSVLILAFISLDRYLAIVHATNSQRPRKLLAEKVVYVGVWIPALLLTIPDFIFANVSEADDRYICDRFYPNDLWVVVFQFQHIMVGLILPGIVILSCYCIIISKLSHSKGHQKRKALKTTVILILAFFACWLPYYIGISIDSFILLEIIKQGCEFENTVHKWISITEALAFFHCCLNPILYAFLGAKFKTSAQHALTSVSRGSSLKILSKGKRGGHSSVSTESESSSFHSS

B1: 238D4: Nanobody (VHH) raised against human CXCR4, SEQ ID NO: 239 (protein)
VHH: EVQLMESGGGLVQAGGSLRLSCAASGRTFNNYAMGWFRRAPGKEREFVAAITRSGVRSGVSAIYGDSVKDRFTISRDNAKNTLYLQMNSLKPEDTAVYTCAASAIGSGALRRFEYDYSGQGTQVTVSS
modifications: Nanobody, Nanobody constructs or fragments thereof
Displacem. (%) of [125I]-238D4 (maximal displacement) (CXCR4 [1]): 103 ± 1%

B2: 238D2: Nanobody (VHH) raised against human CXCR4, SEQ ID NO: 238 (protein)
VHH: EVQLVESGGGLVQTGGSLRLSCAASGFTFSSYAMSWVRQAPGKGLEWVSGIKSSGDSTRYAGSVKGRFTISRDNAKNMLYLQMYSLKPEDTAVYYCAKSRVSRTGLYTYDNRGQGTQVTVSS
modifications: Nanobody, Nanobody constructs or fragments thereof
specificity toward CXCR4 expressing membrane compared to non-expressing membrane (CXCR4 [2]): high specificity
